Assays:
[1] = biological target: T1, soluble human TLR3 extracellular domain (human, UniProt O15455 24-703); experiment: ELISA, TLR3 binding assay as in Example 20
T1 construct: also called hTLR3 extracellular domain; extracellular domain of human TLR3

[2] = biological target: T1, soluble human TLR3 extracellular domain; experiment: ELISA, TLR3 binding assay
[3] = biological target: T1, soluble human TLR3 extracellular domain; experiment: ELISA, coated soluble hTLR3 extracellular domain, anti-mouse IgG-HRP
[4] = biological target: T2, Human hexa-histidine-TLR3 (human, UniProt O15455 24-703, limits assumed); experiment: Biacore 3000, hexa-histidine-TLR3 captured on anti-His antibody, mAb in solution, 25 C, 1:1 model
T2 construct: Captured by anti-His antibody on a CM5 chip; also called TLR3 (captured on the chip surface); not shown: hexa-histidine tag

[5] = biological target: T1, soluble human TLR3 extracellular domain; experiment: Biacore 2000, mAb captured on protein A, TLR3 in solution, 25 C, 1:1 model; mAb capture (mAb on protein A chip, TLR3 in solution)
Description: Measurement of binding affinity by Biacore was performed by mAb capture and TLR3 capture techniques. MAb capture analysis was performed at 25° C. using a Biacore 2000 biosensor equipped with a CM5 chip with surfaces modified with protein A (6,000 RU) at 25° C. by standard amine coupling. Antibody was diluted to 30 nM and captured for one minute on different protein A surfaces. TLR3 was injected at 0, 0.1, 0.3, 1.0, 3.0, and 9.0 nM and associations and dissociations were monitored for 5 minutes. The protein A modified surfaces were regenerated using two 6-second pulses 100 mM phosphoric acid. Available binding data sets were fit to a 1:1 interaction model (CLAMP™). The rate constants and their ratio (KD=kd/kₐ) and the error of fit carried over the estimate of the apparent equilibrium constants were calculated.

| EC50 [1] | EC50 [2] | EC50 [3] | Kd [4] | Kd [5] | Binder |
| --- | --- | --- | --- | --- | --- |
| 1.22 mg/L | > 1 mg/L |  |  |  | human-adapted C1068 variant mAb HBV6 (Vκ CDR1 H30S in the HV1/LV1 background) (antibody, V domains shown, Made in the HV1/LV1 background; not shown: human kappa light chain constant region) VH: QVQLVQSGAEVKKPGASVKVSCKASGYTFTTYWIHWVRQAPGQRLEWMGEINPNNGRINYNEKFKTRVTITRDTSASTAYMELSSLRSEDTAVYYCARVGVMITTFPYWGQGTLVTVSS VL: DIQMTQSPSSLSASVGDRVTITCRASGNISNYLAWYQQKPGKAPKLLIYNAKTLADGVPSRFSGSGSGTDFTLTISSLQPEDFATYYCQHFWSTPFTFGQGTKLEIK |
|  |  | 0.008 mg/L | 0.316 nM | 1.2 nM | murine anti-hTLR3 antagonist mAb 1068 (antibody, mouse IgG1, V domains shown, also called C1068; mAb C1068) VH: QVQLQQPGAELVQPGTSVRLSCKASGYIFTTYWIHWVKQRPGQGLEWIGEINPNNGRINYNEKFKTKATLTVDKSSSTAYMQLSSLTSEDSAVYYCTRVGVMITTFPYWGQGTLVTVSA VL: DIQMTQSPASLSASVGETVTITCRASGNIHNYLAWYQQKQGKSPQLLVYNAKTLADGVPSRFSGSESGTQYSLKINSLQPEDFGSYYCQHFWSTPFTFGSGTKLELK |

Reference: patent publication US20060115475A1 (published 2006)
